Data as given in US20250145690A1 (US Dept. of Health and Human Services, published 2025).

What was measured:
Test in all cases: bead flow cytometry, AUC minus CD4
[1] = target: T1, HCoV-229E spike protein (Sino Biological 40605-V08B) (HCoV-229E, UniProt P15423 16-1115)
T1 sequence: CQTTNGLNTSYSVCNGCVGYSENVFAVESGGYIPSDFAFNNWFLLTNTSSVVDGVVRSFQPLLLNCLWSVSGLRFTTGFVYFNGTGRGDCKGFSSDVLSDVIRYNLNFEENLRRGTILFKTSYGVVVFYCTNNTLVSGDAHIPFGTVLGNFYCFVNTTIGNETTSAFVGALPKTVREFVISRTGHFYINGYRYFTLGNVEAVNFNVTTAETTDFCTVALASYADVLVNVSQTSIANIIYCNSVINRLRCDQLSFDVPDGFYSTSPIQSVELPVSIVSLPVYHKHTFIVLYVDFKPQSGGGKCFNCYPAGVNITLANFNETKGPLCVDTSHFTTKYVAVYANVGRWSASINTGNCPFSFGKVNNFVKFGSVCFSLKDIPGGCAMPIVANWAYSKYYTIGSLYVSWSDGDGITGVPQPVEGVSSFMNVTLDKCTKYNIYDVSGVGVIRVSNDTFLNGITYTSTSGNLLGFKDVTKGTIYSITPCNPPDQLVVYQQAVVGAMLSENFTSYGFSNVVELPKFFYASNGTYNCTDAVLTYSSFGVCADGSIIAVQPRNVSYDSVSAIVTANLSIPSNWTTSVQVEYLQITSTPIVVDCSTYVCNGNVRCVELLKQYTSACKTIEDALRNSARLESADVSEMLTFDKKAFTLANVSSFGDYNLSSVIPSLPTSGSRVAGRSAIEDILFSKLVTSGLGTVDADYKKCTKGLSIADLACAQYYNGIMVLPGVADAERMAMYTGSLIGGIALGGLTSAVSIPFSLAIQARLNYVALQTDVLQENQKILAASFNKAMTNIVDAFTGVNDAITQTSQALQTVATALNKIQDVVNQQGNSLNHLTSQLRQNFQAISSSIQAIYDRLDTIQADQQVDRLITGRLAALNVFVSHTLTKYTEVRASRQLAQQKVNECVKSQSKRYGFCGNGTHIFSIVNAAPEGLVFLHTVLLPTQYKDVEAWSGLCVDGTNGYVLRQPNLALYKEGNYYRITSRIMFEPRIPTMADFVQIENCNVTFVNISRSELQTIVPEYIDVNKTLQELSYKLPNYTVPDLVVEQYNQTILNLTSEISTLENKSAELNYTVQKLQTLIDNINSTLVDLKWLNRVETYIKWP

[2] = target: T2, HCoV-NL63 spike protein (Sino Biological 40604-V08B) (HCoV-NL63, UniProt Q6Q1S2 19-1296)
T2 sequence: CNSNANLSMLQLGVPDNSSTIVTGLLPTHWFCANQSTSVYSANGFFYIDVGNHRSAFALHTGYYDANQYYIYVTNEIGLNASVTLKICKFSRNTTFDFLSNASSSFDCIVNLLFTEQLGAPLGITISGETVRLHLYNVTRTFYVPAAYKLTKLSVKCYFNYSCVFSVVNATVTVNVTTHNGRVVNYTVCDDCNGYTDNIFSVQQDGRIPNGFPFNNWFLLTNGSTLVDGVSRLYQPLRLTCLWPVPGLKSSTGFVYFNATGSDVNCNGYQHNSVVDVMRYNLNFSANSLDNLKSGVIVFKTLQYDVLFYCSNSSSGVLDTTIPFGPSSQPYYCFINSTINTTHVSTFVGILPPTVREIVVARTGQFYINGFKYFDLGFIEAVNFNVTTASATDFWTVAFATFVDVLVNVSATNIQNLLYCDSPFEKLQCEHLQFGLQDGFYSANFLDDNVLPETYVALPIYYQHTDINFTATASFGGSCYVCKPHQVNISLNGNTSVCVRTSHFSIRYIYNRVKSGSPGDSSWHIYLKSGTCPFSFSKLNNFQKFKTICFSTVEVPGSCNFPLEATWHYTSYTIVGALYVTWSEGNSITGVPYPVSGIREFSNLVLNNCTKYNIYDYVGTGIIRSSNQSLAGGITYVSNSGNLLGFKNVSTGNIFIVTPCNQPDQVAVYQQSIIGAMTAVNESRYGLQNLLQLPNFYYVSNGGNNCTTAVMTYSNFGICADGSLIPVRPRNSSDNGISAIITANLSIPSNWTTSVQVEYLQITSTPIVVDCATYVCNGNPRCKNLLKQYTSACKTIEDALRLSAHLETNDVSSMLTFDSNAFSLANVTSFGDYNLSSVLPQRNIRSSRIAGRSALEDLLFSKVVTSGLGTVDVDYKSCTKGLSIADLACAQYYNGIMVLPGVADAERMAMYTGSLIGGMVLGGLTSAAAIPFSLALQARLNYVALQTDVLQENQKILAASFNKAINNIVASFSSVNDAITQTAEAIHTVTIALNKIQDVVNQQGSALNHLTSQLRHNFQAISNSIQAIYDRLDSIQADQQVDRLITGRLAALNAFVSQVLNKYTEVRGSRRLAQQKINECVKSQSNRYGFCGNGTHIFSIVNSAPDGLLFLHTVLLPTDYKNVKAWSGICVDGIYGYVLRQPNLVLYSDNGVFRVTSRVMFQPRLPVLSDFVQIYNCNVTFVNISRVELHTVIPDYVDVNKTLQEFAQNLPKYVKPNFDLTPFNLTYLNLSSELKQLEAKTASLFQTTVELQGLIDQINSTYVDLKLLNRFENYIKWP

[3] = target: T3, SARS-CoV-2 spike S2 subunit, recombinant (SARS-CoV-2, UniProt P0DTC2 686-1213)
T3 construct: domain: S2 subunit

[4] = target: SARS-CoV-2 spike receptor binding domain (RBD), recombinant (SARS-CoV-2, UniProt P0DTC2 319-541)
[5] = target: SARS-CoV-2 spike N-terminal domain (NTD), recombinant (SARS-CoV-2, UniProt P0DTC2 14-305)
MERS-CoV spike protein = target: T4, MERS-CoV spike protein (MERS-CoV, UniProt K9N5Q8 18-1291)
T4 sequence: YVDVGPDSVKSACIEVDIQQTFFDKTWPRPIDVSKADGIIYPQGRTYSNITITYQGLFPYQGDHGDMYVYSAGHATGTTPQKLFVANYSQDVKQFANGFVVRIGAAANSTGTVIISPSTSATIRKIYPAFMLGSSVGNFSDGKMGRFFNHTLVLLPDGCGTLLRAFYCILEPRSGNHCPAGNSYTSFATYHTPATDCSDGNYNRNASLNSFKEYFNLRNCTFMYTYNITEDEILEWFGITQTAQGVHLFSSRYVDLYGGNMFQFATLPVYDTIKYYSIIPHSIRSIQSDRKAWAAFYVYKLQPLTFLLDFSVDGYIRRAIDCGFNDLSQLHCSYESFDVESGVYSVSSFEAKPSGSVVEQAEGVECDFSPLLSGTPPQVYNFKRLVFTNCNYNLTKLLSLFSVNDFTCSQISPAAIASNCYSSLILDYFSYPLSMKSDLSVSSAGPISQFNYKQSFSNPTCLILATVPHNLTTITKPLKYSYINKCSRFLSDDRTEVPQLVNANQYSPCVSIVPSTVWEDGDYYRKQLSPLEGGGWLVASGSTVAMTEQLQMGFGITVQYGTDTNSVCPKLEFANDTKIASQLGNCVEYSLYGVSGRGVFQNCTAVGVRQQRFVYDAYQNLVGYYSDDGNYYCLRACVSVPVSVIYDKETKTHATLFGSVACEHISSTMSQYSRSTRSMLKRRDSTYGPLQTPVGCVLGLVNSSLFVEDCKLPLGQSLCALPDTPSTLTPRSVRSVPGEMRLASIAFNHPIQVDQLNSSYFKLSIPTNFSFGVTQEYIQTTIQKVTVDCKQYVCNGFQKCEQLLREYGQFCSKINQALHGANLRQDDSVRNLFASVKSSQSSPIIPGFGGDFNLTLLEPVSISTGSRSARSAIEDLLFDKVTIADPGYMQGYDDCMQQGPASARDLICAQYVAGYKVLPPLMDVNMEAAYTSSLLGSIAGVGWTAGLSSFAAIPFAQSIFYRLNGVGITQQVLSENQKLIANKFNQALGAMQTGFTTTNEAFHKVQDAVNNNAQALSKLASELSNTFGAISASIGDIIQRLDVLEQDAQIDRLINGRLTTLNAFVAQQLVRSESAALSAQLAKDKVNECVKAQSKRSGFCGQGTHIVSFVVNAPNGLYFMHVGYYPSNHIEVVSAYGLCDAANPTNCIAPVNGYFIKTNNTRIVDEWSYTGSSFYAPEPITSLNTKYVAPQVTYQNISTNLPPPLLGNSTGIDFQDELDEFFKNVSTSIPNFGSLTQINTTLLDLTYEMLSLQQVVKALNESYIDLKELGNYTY

Measured: binding result

B1: COV49-42 (antibody, V domains shown)
VH: QVHLVQSGAEVKNPGVSVKVSCKASGYTFTTSGITWVRQAPGQGLEWMGWISTYNGNTETAQTFQGRVTMTTDTSTSTAYMELRRLRSDDTAVYYCARVQSVATSSNYFFDYWGQGTRVTVSS
VL: DIQMTQSPSSLSASVGDRVTITCRASQTIDRFLNWYQQKPGKAPKLLIYAASRLQSGVPSRFSGSGSGTTYTLTISSLQPEDFATYFCQQSYSDPRALTFGGGTKVEIK
no binding (tested: 200 µg/mL): [1] | [2] | [3] | [4] | [5]

B2: COV77-02 (antibody, V domains shown)
VH: QVQLVESGGGVVQPGRSLRLSCAASGFTFSDHGMHWVRQAPGKGLQWVALIWYDGSNMFYRDSVKGRFTISRDNSKNTVYLEMSSLRAEDTALYYCARGTDVWSGLSLDALDVWGQGTMVTVSP
VL: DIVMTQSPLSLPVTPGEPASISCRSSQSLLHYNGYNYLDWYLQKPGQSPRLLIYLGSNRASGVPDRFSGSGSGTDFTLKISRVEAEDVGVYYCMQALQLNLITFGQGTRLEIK
no binding (tested: 200 µg/mL): [1] | [2] | [3] | [4] | [5]

B3: COV93-04 (antibody, V domains shown)
VH: QLQLQESGSGLVKPSQTLSLTCVVSGDSISSGGYSWSWIRQQPGKALEWIGYIYHSGVTNYNPSLKSRVTISVDRSTNQFSLKLSSVTAADTAVYYCARDGKYNWFDPWGQGILVTVSS
VL: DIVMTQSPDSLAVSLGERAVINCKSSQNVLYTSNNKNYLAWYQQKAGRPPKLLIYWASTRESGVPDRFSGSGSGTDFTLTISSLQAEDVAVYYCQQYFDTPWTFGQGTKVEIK
no binding (tested: 200 µg/mL): [1] | [2] | [3] | [4] | [5]

B4: COV57-01 (antibody, V domains shown)
VH: QVQLVESGGGVVQPGRSLRLSCTVSGFTFNNYGMHWVRQAPGKGLEWLAVISYEGSKKFYADSLEGRFSISRDSSKNTLYLQMNSLTIEDTAVYFCAKRNSIFWFGEGRKDAFDVWGQGTRVIVSS
VL: DIQLTQSPSSLSASVGDRVTITCRASQTVDNYLNWYQQLPGKAPKLLIHTASTLQSGVPSRFSATSSGTDFTLTISGLQPDDSATYFCQQSYSVPLTFGGGTKVEIKV
no binding (tested: 200 µg/mL): [2] | MERS-CoV spike protein

B5: COV93-60 (antibody, V domains shown)
VH: QVQLQESGPGLVKPSETLFLTCAVSGGSINSSYWSWIRQPPGKGLEWIGYIYYRGSTNYNPSLKSRVTISVDTSKNQFSLKLNSVTAADTAIYYCARENLWNWFDPWGQGILVTVSS
VL: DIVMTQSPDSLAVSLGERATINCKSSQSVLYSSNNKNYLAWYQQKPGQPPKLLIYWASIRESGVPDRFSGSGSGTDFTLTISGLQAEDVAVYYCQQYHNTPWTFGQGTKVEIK
no binding (tested: 200 µg/mL): [1] | [2] | [4] | [5]

B6: COV93-61 (antibody, V domains shown)
VH: EVQLVQSGAEVKKPGESLKISCKGSGYSFTTFWIGWVRQMPGKGLEWVGVIYPDDSDTRYSPSFQGQVTMSADKSINTAYLQWSSLKASDTAVYYCARRNCDAALCYLGTYDYWGQGTVVTVSS
VL: QSALTQPPSASGSPGQSVTISCTGTISDVGRYDFVSWYQHHPGKAPKLIIYEVTKRPSGVPDRFSGSKSGNTASLTVSGLQAEDEADYYCNSYAGHNNFVIFGGGTKLTVL
no binding (tested: 200 µg/mL): [1] | [2] | [4] | [5]

B7: COV89-03 (antibody, V domains shown)
VH: QVQLQESGPGLVKPSETLSLTCTVSGGSIRSNYWSWIRQPPGKRLEWLGYIYYSGSTNYNPSLKSRVTISVDTSKNQFSLNLSSVTAADTAVYYCVREMPYNWIDPWGQGTLVTVSS
VL: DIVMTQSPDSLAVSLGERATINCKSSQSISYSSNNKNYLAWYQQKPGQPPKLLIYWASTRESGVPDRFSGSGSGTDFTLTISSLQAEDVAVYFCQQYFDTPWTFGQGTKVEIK
no binding (tested: 200 µg/mL): [1] | [2] | [4] | [5]
